Results published in patent US20240200091A1, “USE OF PROTOPORPHYRINOGEN OXIDASE” (BEIJING DABEINONG BIOTECHNOLOGY CO., LTD., priority 2021, published 2024).

What was measured:
Assay type in all cases: in vivo
transgenic maize plants [1] = assay: oxyfluorfen tolerance of transgenic maize plants (spray, grade of pesticide damage); details: for The grade of pesticide damage/plant: number of plants of grade 0 / The grade of pesticide damage/plant: number of plants of grade 1 / The grade of pesticide damage/plant: number of plants of grade 2 / The grade of pesticide damage/plant: number of plants of grade 3: 7 DAT, 16 maize plants per genotype
transgenic maize plants [2] = assay: flumioxazin tolerance of transgenic maize plants (spray, grade of pesticide damage); details: for The grade of pesticide damage/plant: number of plants of grade 0 / The grade of pesticide damage/plant: number of plants of grade 1 / The grade of pesticide damage/plant: number of plants of grade 2 / The grade of pesticide damage/plant: number of plants of grade 3: 7 DAT, 16 maize plants per genotype; for tolerance to flumioxazin: maize, flumioxazin at different concentrations (120 and 240 g ai/ha)
transgenic maize plants [3] = assay: saflufenacil tolerance of transgenic maize plants (spray, grade of pesticide damage); details: for The grade of pesticide damage/plant: number of plants of grade 0 / The grade of pesticide damage/plant: number of plants of grade 1 / The grade of pesticide damage/plant: number of plants of grade 2 / The grade of pesticide damage/plant: number of plants of grade 3: 7 DAT, 16 maize plants per genotype
[4] = maize, oxyfluorfen at four-fold field concentration (720 g ai/ha)
[5] = maize, oxyfluorfen at two-fold field concentration (360 g ai/ha)
[6] = oxyfluorfen 360 g ai/ha (2x field concentration)
[7] = oxyfluorfen 720 g ai/ha (4x field concentration)
[8] = flumioxazin 120 g ai/ha (2x field concentration)
[9] = flumioxazin 240 g ai/ha (4x field concentration)
[10] = maize, saflufenacil at four-fold field concentration (100 g ai/ha)
[11] = maize, saflufenacil at two-fold field concentration (50 g ai/ha)
[12] = saflufenacil 50 g ai/ha (2x field concentration)
[13] = saflufenacil 100 g ai/ha (4x field concentration)

B1: PPO12B: nucleotide sequence encoding protoporphyrinogen oxidase PPO12, maize common codon usage bias (nucleic acid)
DNA: ATGAAGAAGGCGCTGTTTTTATATTCAAGTCGTGAGGGCCAAACAAAAAAAATATTGAACTACATTGAAGGTGAATTGTCCAATTTTGAGTGCGAGCTCGTCGACCTCCACACGCTGGACGCCATTGATTTCTCGGTCTATGACAGGGTTTTGATTGGAGCAAGCATACGGTACGGCCACCTAAACAAGAAACTTTATCAATTCATTGAGAATAACCGCCAGCAGCTGGAAAATCATACCAAGGTGGCCTTCTTCTGTGTAAATCTTACTGCAAGGAAGGAAGATCAAGGCAAGGACACCCCTGAAGGGAGCGTCTACATCCAGAAGTTCCTGAAAAAATCTCCCTGGCAGCCAAAACTTATCGGGGTGTTCGCTGGCGCGCTCTACTACCCGAGATATGGTTTTTTTGACAAGATGATGATCAAGCTCATCATGACGCTGACAGATGGAGAGACTGATACTACAAAGGAGGTGGAGTACACCAACTGGAAGAAAGTTTCCCTCTTCGCCAAGAAGTTTGCTGAGCTTTGA
modifications: The nucleotide sequence of PPO12B
tolerance to oxyfluorfen (transgenic maize plants [1]; [4]): high-resistant tolerance
tolerance to oxyfluorfen (transgenic maize plants [1]; [5]): high-resistant tolerance
The grade of pesticide damage/plant: number of plants of grade 0 (transgenic maize plants [1]; [6]): 16
The grade of pesticide damage/plant: number of plants of grade 1 (transgenic maize plants [1]; [6]): 0
The grade of pesticide damage/plant: number of plants of grade 2 (transgenic maize plants [1]; [6]): 0
The grade of pesticide damage/plant: number of plants of grade 3 (transgenic maize plants [1]; [6]): 0
The grade of pesticide damage/plant: number of plants of grade 0 (transgenic maize plants [1]; [7]): 16
The grade of pesticide damage/plant: number of plants of grade 1 (transgenic maize plants [1]; [7]): 0
The grade of pesticide damage/plant: number of plants of grade 2 (transgenic maize plants [1]; [7]): 0
The grade of pesticide damage/plant: number of plants of grade 3 (transgenic maize plants [1]; [7]): 0
The grade of pesticide damage/plant: number of plants of grade 0 (transgenic maize plants [2]; [8]): 16
The grade of pesticide damage/plant: number of plants of grade 1 (transgenic maize plants [2]; [8]): 0
The grade of pesticide damage/plant: number of plants of grade 2 (transgenic maize plants [2]; [8]): 0
The grade of pesticide damage/plant: number of plants of grade 3 (transgenic maize plants [2]; [8]): 0
The grade of pesticide damage/plant: number of plants of grade 0 (transgenic maize plants [2]; [9]): 16
The grade of pesticide damage/plant: number of plants of grade 1 (transgenic maize plants [2]; [9]): 0
The grade of pesticide damage/plant: number of plants of grade 2 (transgenic maize plants [2]; [9]): 0
The grade of pesticide damage/plant: number of plants of grade 3 (transgenic maize plants [2]; [9]): 0
tolerance to flumioxazin (transgenic maize plants [2]): high-resistant tolerance
tolerance to saflufenacil (transgenic maize plants [3]; [10]): high-resistant tolerance
tolerance to saflufenacil (transgenic maize plants [3]; [11]): high-resistant tolerance
The grade of pesticide damage/plant: number of plants of grade 0 (transgenic maize plants [3]; [12]): 16
The grade of pesticide damage/plant: number of plants of grade 1 (transgenic maize plants [3]; [12]): 0
The grade of pesticide damage/plant: number of plants of grade 2 (transgenic maize plants [3]; [12]): 0
The grade of pesticide damage/plant: number of plants of grade 3 (transgenic maize plants [3]; [12]): 0
The grade of pesticide damage/plant: number of plants of grade 0 (transgenic maize plants [3]; [13]): 16
The grade of pesticide damage/plant: number of plants of grade 1 (transgenic maize plants [3]; [13]): 0
The grade of pesticide damage/plant: number of plants of grade 2 (transgenic maize plants [3]; [13]): 0
The grade of pesticide damage/plant: number of plants of grade 3 (transgenic maize plants [3]; [13]): 0

B2: PPO-APB: nucleotide sequence encoding Arsenophonus protoporphyrinogen oxidase PPO-AP (SEQ ID NO:65), maize common codon usage bias (nucleic acid)
DNA: ATGTCCTACCTCTTGCTGTATTCGGGGAAAAATGGTCAAACCAAGAAGATCATCCTCAAAATAACTGAATATCTTCGTAAAGAAGGAAAGCAGTGCGACGTCAGAGATCTTAACATGGACAAGAATTTTAATTTAAGTGTGTACCAGAAGGTTCTTGTCGGAGCTTCAATTCGCTACGGCCACTTCAACCCCGCCGTGCTGAACTTCGCGCAGAATCATCAAAAAGAGCTGAACACAATTCAATCTGCCTTCTTTGGCGTCAACCTGATGGCGAGGAAGCAAGGGAAGGATACACCAGAAACCAATGTTTATGTTCGGAAGTTTTTGGCTAAAATTCCATGGCAGCCGACGATCACCAACGTATTTAGCGGTGCACTCAGATATCCTCAGTACAAGTGGCTGGATAGGATAATGATCCAGTTCATCATGAAGATTACTGGCGGCGAGACAAATAAGAACAAGGAGGTGGAGTACACGGACTGGGAGAAAGTGGAATACTTCGCCCGCGAGTTCAATGCACTAAAATGA
modifications: The nucleotide sequence of PPO-APB
tolerance to oxyfluorfen (transgenic maize plants [1]; [4]): no tolerance
share of the plants that exhibited no tolerance (transgenic maize plants [1]; [5]): about 50%
The grade of pesticide damage/plant: number of plants of grade 0 (transgenic maize plants [1]; [6]): 0
The grade of pesticide damage/plant: number of plants of grade 1 (transgenic maize plants [1]; [6]): 0
The grade of pesticide damage/plant: number of plants of grade 2 (transgenic maize plants [1]; [6]): 8
The grade of pesticide damage/plant: number of plants of grade 3 (transgenic maize plants [1]; [6]): 8
The grade of pesticide damage/plant: number of plants of grade 0 (transgenic maize plants [1]; [7]): 0
The grade of pesticide damage/plant: number of plants of grade 1 (transgenic maize plants [1]; [7]): 0
The grade of pesticide damage/plant: number of plants of grade 2 (transgenic maize plants [1]; [7]): 0
The grade of pesticide damage/plant: number of plants of grade 3 (transgenic maize plants [1]; [7]): 16
The grade of pesticide damage/plant: number of plants of grade 0 (transgenic maize plants [2]; [8]): 0
The grade of pesticide damage/plant: number of plants of grade 1 (transgenic maize plants [2]; [8]): 0
The grade of pesticide damage/plant: number of plants of grade 2 (transgenic maize plants [2]; [8]): 3
The grade of pesticide damage/plant: number of plants of grade 3 (transgenic maize plants [2]; [8]): 13
The grade of pesticide damage/plant: number of plants of grade 0 (transgenic maize plants [2]; [9]): 0
The grade of pesticide damage/plant: number of plants of grade 1 (transgenic maize plants [2]; [9]): 0
The grade of pesticide damage/plant: number of plants of grade 2 (transgenic maize plants [2]; [9]): 0
The grade of pesticide damage/plant: number of plants of grade 3 (transgenic maize plants [2]; [9]): 16
tolerance to flumioxazin (transgenic maize plants [2]): basically no tolerance
tolerance to saflufenacil (transgenic maize plants [3]; [10]): basically no tolerance
share of the plants that exhibited no tolerance (transgenic maize plants [3]; [11]): about 56
The grade of pesticide damage/plant: number of plants of grade 0 (transgenic maize plants [3]; [12]): 0
The grade of pesticide damage/plant: number of plants of grade 1 (transgenic maize plants [3]; [12]): 0
The grade of pesticide damage/plant: number of plants of grade 2 (transgenic maize plants [3]; [12]): 7
The grade of pesticide damage/plant: number of plants of grade 3 (transgenic maize plants [3]; [12]): 9
The grade of pesticide damage/plant: number of plants of grade 0 (transgenic maize plants [3]; [13]): 0
The grade of pesticide damage/plant: number of plants of grade 1 (transgenic maize plants [3]; [13]): 0
The grade of pesticide damage/plant: number of plants of grade 2 (transgenic maize plants [3]; [13]): 1
The grade of pesticide damage/plant: number of plants of grade 3 (transgenic maize plants [3]; [13]): 15
